Reference: US20060166332

Molecular target: Cre recombinase (Bacteriophage P1?) (UniProt P06956)
Test: cell_activity
Conditions: pCH110 control without loxP in Sure:cre

Sequence of UniProt P06956 (P06956 whole entry): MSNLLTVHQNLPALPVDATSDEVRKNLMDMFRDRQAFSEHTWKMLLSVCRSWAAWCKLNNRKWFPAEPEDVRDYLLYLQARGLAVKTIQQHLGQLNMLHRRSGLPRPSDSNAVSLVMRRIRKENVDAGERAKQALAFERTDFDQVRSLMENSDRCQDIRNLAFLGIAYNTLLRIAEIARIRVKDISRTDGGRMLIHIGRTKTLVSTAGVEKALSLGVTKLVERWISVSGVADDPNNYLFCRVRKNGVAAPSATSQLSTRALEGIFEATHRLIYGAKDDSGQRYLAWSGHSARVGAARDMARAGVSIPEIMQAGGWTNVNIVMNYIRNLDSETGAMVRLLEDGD

Substance: pCH110 plasmid without loxP
- activity (% white colonies): 0
